One may read the Kd as the concentration at which binding is half-saturated. Lower therefore signals tighter binding.

The text below walks through data of paper PMC9610207 (Viruses, 2022).

The target of assay [1] is T1, MPP5 PDZ (amino acids 238–336) (human, UniProt Q8N3R9 238-336).
T1 sequence (looked up): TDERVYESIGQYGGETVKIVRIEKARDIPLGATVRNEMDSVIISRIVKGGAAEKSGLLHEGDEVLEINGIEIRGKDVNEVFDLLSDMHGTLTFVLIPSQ
Description: fluorescence polarisation. The conditions noted are these: both partners purified.

The target of assay [2] is SNX27 PDZ (amino acids 740–141) (human, UniProt Q96L92 43-136). Nature of the assay: fluorescence polarisation. The conditions noted are these: both partners purified.

No end group written: not given here.

B1: FITC-labeled peptide of the C-terminus of the SARS-CoV-2 E protein (E66-77) (peptide)
peptide: NSSRVPDLLV
modifications: also: FITC-labeled
notes: also called peptide from the E protein
For B1, the Kd in assay [1] is 400 ± 55 µM; in assay [2] it was above 400 µM.

B2: FITC-labeled peptide of the C-terminus of SARS-CoV-2 ORF3a (ORF3A 266-275) (peptide)
peptide: EPTTTTSVPL
modifications: also: FITC-labeled
B2 gave a Kd in assay [2] above 400 µM.
